Results as given in article PMC9978035, “Human uridine 5′-monophosphate synthase stores metabolic potential in inactive biomolecular condensates” (The Journal of Biological Chemistry, 2023).
Where a chain is given by its changes, count along the chain named. Names may count otherwise.

Assays:
[1] = molecular target: the molecule itself; experiment: SEC; 20 mM Tris pH 7.5, 100 mM NaCl; SEPAX SRT-10-SEC-300 or Superdex 200 columns; MW standards run under the same conditions; also run with 500 μM orotate
[2] = molecular target: the molecule itself; experiment: AUC; sedimentation at 38,000 rpm, absorbance at 280 nm, 1 mg/ml (WT) or 1.5 mg/ml (mutants) and 1:5 dilutions, SEDFIT continuous sedimentation profiles
[3] = molecular target: the molecule itself; experiment: cross-linking; SEC fractions in 50.0 mM Na3PO4 pH 8.0, 100.0 mM NaCl, 0.004% glutaraldehyde, quenched at time points up to 2 h, SDS-PAGE

B1: Human uridine 5′-monophosphate synthase (HsUMPS), wildtype (enzyme, UniProt P11172 1-480, looked up)
chain: MAVARAALGPLVTGLYDVQAFKFGDFVLKSGLSSPIYIDLRGIVSRPRLLSQVADILFQTAQNAGISFDTVCGVPYTALPLATVICSTNQIPMLIRRKETKDYGTKRLVEGTINPGETCLIIEDVVTSGSSVLETVEVLQKEGLKVTDAIVLLDREQGGKDKLQAHGIRLHSVCTLSKMLEILEQQKKVDAETVGRVKRFIQENVFVAANHNGSPLSIKEAPKELSFGARAELPRIHPVASKLLRLMQKKETNLCLSADVSLARELLQLADALGPSICMLKTHVDILNDFTLDVMKELITLAKCHEFLIFEDRKFADIGNTVKKQYEGGIFKIASWADLVNAHVVPGSGVVKGLQEVGLPLHRGCLLIAEMSSTGSLATGDYTRAAVRMAEEHSEFVVGFISGSRVSMKPEFLHLTPGVQLEAGGDNLGQQYNSPQEVIGKRGSDIIIVGRGIISAADRLEAAEMYRKAAWEAYLSRLGV
notes: Human UMP synthase (UMPS), bifunctional enzyme with OPRT and OMPDC domains; codon-optimized human UMPS in pDB-His-MBP between NdeI and XhoI; expected protomer MW 52 kDa; both domains are present and the expected protomer mass of 52 kDa fits the whole protein (surmise); also called human UMPS; UMP synthase; source: E. coli BL21(DE3), purified (amylose resin, on-column TEV cleavage, Ni-NTA, SEC or …)
With B1 the “stoichiometry N” value [1] was 2.

B2: HsUMPS S87T/Q90E (OPRT dimerization-deficient mutant) (enzyme, human, UniProt P11172 1-480, looked up)
chain: B1 chain with S87T, Q90E
notes: Human UMP synthase (UMPS) with the double mutation S87T/Q90E at the native OPRT dimer interface; same construct as the wildtype; as m1 with the mutations; also called oligomerization-deficient mutant; source: E. coli BL21(DE3), purified in a similar fashion as WT; not shown: His6, N-terminal, cleaved; MBP, N-terminal, cleaved
With B2 the “stoichiometry N” value [2] was 2.

B3: HsUMPS D312N (OMPDC active site mutant) (enzyme, human, UniProt P11172 1-480, looked up)
chain: B1 chain with D312N
notes: Human UMP synthase (UMPS) with the OMPDC active site mutation D312N; same construct as the wildtype; as m1 with the mutation; also called OMPDC mutant; source: E. coli BL21(DE3), purified in a similar fashion as WT; not shown: His6, N-terminal, cleaved; MBP, N-terminal, cleaved
B3: binds [1].

B4: HsUMPS E123Q (OPRT active site mutant) (enzyme, human, UniProt P11172 1-480, looked up)
chain: B1 chain with E123Q
notes: Human UMP synthase (UMPS) with the OPRT active site mutation E123Q; same construct as the wildtype; as m1 with the mutation; also called E123Q OPRT mutant; source: E. coli BL21(DE3), purified in a similar fashion as WT; not shown: His6, N-terminal, cleaved; MBP, N-terminal, cleaved
In the case of B4, the “stoichiometry N” value [3] is reported as 2.
